Reference: patent US20260308278 (published 2026)

What was measured:
scFcRn = scFcRn (human, UniProt P55899); test: SPR, pH 6.0, 25C
[1] = molecular target: T1, human C3bBb (Bb from FB D279G/K350N/M458I) (human); test: SPR, 37C
[2] = molecular target: T1, human C3bBb (Bb from FB …); test: SPR, 25C

Chain of scFcRn (P55899 24-297, chain 1 of 2): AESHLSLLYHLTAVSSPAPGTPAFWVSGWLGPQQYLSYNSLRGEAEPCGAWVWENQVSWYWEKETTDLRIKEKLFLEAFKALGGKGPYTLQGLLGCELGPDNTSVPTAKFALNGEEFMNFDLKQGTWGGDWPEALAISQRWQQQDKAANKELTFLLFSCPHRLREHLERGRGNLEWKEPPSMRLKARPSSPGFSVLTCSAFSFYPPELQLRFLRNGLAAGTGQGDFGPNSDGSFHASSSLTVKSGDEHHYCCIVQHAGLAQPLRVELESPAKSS
Chain of scFcRn (chain, as listed by the source, chain 2 of 2): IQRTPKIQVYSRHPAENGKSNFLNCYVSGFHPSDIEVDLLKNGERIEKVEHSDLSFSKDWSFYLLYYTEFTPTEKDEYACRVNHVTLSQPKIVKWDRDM
T1 sequence (P01024 23-1663, chain 1 of 2): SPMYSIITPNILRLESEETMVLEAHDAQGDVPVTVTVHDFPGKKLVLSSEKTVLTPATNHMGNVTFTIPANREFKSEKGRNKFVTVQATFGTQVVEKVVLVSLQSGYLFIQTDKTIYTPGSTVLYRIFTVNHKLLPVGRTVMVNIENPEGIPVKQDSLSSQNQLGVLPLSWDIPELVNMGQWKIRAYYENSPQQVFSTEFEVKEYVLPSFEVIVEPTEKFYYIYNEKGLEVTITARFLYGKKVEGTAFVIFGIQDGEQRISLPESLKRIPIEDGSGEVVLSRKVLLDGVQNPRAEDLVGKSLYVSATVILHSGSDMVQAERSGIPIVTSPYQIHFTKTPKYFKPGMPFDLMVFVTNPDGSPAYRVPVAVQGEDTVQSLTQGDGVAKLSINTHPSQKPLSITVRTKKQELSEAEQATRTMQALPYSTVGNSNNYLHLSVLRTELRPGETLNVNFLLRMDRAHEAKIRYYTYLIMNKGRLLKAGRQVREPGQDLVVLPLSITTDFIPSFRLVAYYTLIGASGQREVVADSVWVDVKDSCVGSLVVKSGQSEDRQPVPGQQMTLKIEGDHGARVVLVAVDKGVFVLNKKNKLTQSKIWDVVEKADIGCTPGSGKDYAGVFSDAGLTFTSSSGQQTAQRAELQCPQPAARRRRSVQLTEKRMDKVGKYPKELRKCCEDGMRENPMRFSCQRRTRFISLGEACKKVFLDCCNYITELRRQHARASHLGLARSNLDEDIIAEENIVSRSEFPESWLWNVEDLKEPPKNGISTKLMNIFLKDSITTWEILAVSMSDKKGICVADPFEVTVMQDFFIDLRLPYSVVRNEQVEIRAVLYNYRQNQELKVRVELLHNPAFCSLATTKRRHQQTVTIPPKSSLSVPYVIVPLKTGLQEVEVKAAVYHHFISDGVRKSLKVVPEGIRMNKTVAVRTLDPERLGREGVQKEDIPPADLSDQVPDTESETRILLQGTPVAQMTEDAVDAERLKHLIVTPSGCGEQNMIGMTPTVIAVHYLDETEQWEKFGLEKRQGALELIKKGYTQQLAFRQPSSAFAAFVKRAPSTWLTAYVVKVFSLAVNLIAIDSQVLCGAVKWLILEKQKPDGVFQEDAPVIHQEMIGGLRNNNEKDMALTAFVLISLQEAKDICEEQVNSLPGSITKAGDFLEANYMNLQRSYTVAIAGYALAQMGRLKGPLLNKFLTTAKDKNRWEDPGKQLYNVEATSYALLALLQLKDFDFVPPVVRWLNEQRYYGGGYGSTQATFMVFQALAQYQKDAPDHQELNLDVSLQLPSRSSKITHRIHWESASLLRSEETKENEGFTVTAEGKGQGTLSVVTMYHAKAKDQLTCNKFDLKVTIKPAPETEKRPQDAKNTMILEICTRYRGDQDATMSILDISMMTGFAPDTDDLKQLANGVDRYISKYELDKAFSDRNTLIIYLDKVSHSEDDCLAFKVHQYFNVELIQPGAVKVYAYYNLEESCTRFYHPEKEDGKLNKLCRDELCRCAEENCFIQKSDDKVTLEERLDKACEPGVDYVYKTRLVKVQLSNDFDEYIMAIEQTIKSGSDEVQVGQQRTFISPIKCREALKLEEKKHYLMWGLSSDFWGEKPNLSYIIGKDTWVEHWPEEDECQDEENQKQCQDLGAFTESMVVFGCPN
T1 sequence (P00751 260-764 D279G/K350N/M458I, chain 2 of 2, further chain): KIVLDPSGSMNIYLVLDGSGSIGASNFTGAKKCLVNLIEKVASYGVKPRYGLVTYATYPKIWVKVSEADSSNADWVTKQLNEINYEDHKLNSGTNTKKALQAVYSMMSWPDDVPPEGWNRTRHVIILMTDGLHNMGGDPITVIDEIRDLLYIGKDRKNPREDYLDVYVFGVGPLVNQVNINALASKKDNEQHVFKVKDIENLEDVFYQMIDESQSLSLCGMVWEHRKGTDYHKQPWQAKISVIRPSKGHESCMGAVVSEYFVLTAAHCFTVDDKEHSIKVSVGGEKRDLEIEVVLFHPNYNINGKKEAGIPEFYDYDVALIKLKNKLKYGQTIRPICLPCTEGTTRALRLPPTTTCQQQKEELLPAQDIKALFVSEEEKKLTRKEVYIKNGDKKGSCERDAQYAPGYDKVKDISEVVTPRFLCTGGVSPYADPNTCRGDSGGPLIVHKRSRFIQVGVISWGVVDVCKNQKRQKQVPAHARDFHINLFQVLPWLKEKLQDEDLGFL

Binder | binding result (scFcRn) | Kd [1] | Kd [2]
P1AH1205 full Fab (antibody) chain 1: KVQLVESGGGLVQPGGSLRLSCAASGFKWEHYAMSWVRQAPGKGLEWVGSISPRGDHKYYNTKFIDRFTISRDNDKNTLYLQMNSLRAEDTAVYYCARDWDYFDRWGQGTLVTVSSASTKGPSVFPLAPSSKSTSGGTAALGCLVKDYFPEPVTVSWNSGALTSGVHTFPAVLQSSGLYSLSSVVTVPSSSLGTQTYICNVNHKPSNTKVDKKVEPKSCD chain 2: AIQMTQSPSSLSASVGDRVTITCQSQFWLSNYLAWYQQKPGKAPKLLIFDGDLPYERPSRFSGSGSHDEYTLTISSLQPEDFATYYCQQYREEPYTFGQGTKLEIKRTVAAPSVFIFPPSDEQLKSGTASVVCLLNNFYPREAKVQWKVDNALQSGNSQESVTEQDSKDSTYSLSSTLTLSKADYEKHKVYACEVTHQGLSSPVTKSFNRGEC | no binding | – | –
P1AG9426 full IgG (antibody) chain 1: QVQLVESGGGLVQPGGSLRLSCAASGFKYDVYAMSWVRQAPGKGLEWVGEISPRGDSKYYNTKFIDRFTISRDNEKNTLYLQMNSLRAEDTAVYYCARDWEYFDNWGQGTLVTVSSASTKGPSVFPLAPSSKSTSGGTAALGCLVKDYFPEPVTVSWNSGALTSGVHTFPAVLQSSGLYSLSSVVTVPSSSLGTQTYICNVNHKPSNTKVDKKVEPKSCDKTHTCPPCPAPEAAGGPSVFLFPPKPKDTLMASRTPEVTCVVVDVSHEDPEVKFNWYVDGVEVHNAKTKPREEQYNSTYRVVSVLTVLAQDWLNGKEYKCKVSNKALGAPIEKTISKAKGQPREPQVYTLPPSRDELTKNQVSLTCLVKGFYPSDIAVEWESNGQPENNYKTTPPVLDSDGSFFLYSKLTVDKSRWQQGNVFSCSVMHEALHNAYTQKSLSLSP chain 2: AIQMTQSPSSLSASVGDRVTITCQASYWLSNYLAWYQQKPGKAPKLLIFDGDIPYEIPSRFSGSGSHEEYTLTISSLQPEDFATYYCQQYRETPYTFGQGTKLEIKRTVAAPSVFIFPPSDEQLKSGTASVVCLLNNFYPREAKVQWKVDNALQSGNSQESVTEQDSKDSTYSLSSTLTLSKADYEKHKVYACEVTHQGLSSPVTKSFNRGEC | no binding | – | –
P1AG9391 full IgG (antibody) chain 1: QVQLVESGGGLVQPGGSLRLSCAASGFKYDVYAMSWVRQAPGKGLEWVGEISPRGDSKYYNTKFIDRFTISRDNEKNTLYLQMNSLRAEDTAVYYCARDWEYFDNWGQGTLVTVSSASTKGPSVFPLAPSSKSTSGGTAALGCLVKDYFPEPVTVSWNSGALTSGVHTFPAVLQSSGLYSLSSVVTVPSSSLGTQTYICNVNHKPSNTKVDKKVEPKSCDKTHTCPPCPAPEAAGGPSVFLFPPKPKDTLMASRTPEVTCVVVDVSHEDPEVKFNWYVDGVEVHNAKTKPREEQYNSTYRVVSVLTVLAQDWLNGKEYKCKVSNKALGAPIEKTISKAKGQPREPQVYTLPPSRDELTKNQVSLTCLVKGFYPSDIAVEWESNGQPENNYKTTPPVLDSDGSFFLYSKLTVDKSRWQQGNVFSCSVMHEALHNAYTQKSLSLSP chain 2: AIQMTQSPSSLSASVGDRVTITCQASYWLSNYLAWYQQKPGKAPKLLIFDGDIPWEIPSRFSGSGSHEEYTLTISSLQPEDFATYYCQQYRDTPYTFGQGTKLEIKRTVAAPSVFIFPPSDEQLKSGTASVVCLLNNFYPREAKVQWKVDNALQSGNSQESVTEQDSKDSTYSLSSTLTLSKADYEKHKVYACEVTHQGLSSPVTKSFNRGEC | no binding | – | –
P1AG9372 full IgG (antibody) chain 1: EVQLVESGGGLVQPGGSLRLSCAASGFRFDIYAMSWVRQAPGKGLEWVGEISPDGRTKYYNTKFIDRFTISRDNEKNTLYLQMNSLRAEDTAVYYCARDWEYFDNWGQGTLVTVSSASTKGPSVFPLAPSSKSTSGGTAALGCLVKDYFPEPVTVSWNSGALTSGVHTFPAVLQSSGLYSLSSVVTVPSSSLGTQTYICNVNHKPSNTKVDKKVEPKSCDKTHTCPPCPAPEAAGGPSVFLFPPKPKDTLMASRTPEVTCVVVDVSHEDPEVKFNWYVDGVEVHNAKTKPREEQYNSTYRVVSVLTVLAQDWLNGKEYKCKVSNKALGAPIEKTISKAKGQPREPQVYTLPPSRDELTKNQVSLTCLVKGFYPSDIAVEWESNGQPENNYKTTPPVLDSDGSFFLYSKLTVDKSRWQQGNVFSCSVMHEALHNAYTQKSLSLSP chain 2: AIQMTQSPSSLSASVGDRVTITCQSQFWLSNYLAWYQQKPGKAPKLLIFDGDLPYERPSRFSGSGSHDEYTLTISSLQPEDFATYYCQQYREEPYTFGQGTKLEIKRTVAAPSVFIFPPSDEQLKSGTASVVCLLNNFYPREAKVQWKVDNALQSGNSQESVTEQDSKDSTYSLSSTLTLSKADYEKHKVYACEVTHQGLSSPVTKSFNRGEC | no binding | – | –
P1AG9376 full IgG (antibody) chain 1: KVQLVESGGGLVQPGGSLRLSCAASGFKWEHYAMSWVRQAPGKGLEWVGSISPRGDHKYYNTKFIDRFTISRDNDKNTLYLQMNSLRAEDTAVYYCARDWDYFDRWGQGTLVTVSSASTKGPSVFPLAPSSKSTSGGTAALGCLVKDYFPEPVTVSWNSGALTSGVHTFPAVLQSSGLYSLSSVVTVPSSSLGTQTYICNVNHKPSNTKVDKKVEPKSCDKTHTCPPCPAPEAAGGPSVFLFPPKPKDTLMASRTPEVTCVVVDVSHEDPEVKFNWYVDGVEVHNAKTKPREEQYNSTYRVVSVLTVLAQDWLNGKEYKCKVSNKALGAPIEKTISKAKGQPREPQVYTLPPSRDELTKNQVSLTCLVKGFYPSDIAVEWESNGQPENNYKTTPPVLDSDGSFFLYSKLTVDKSRWQQGNVFSCSVMHEALHNAYTQKSLSLSP chain 2: AIQMTQSPSSLSASVGDRVTITCQSQFWLSNYLAWYQQKPGKAPKLLIFDGDLPYERPSRFSGSGSHDEYTLTISSLQPEDFATYYCQQYREEPYTFGQGTKLEIKRTVAAPSVFIFPPSDEQLKSGTASVVCLLNNFYPREAKVQWKVDNALQSGNSQESVTEQDSKDSTYSLSSTLTLSKADYEKHKVYACEVTHQGLSSPVTKSFNRGEC | no binding | – | –
P1AH1199 full Fab (antibody) chain 1: QVQLVESGGGLVQPGGSLRLSCAASGFKYDVYAMSWVRQAPGKGLEWVGEISPRGDSKYYNTKFIDRFTISRDNEKNTLYLQMNSLRAEDTAVYYCARDWEYFDNWGQGTLVTVSSASTKGPSVFPLAPSSKSTSGGTAALGCLVKDYFPEPVTVSWNSGALTSGVHTFPAVLQSSGLYSLSSVVTVPSSSLGTQTYICNVNHKPSNTKVDKKVEPKSCD chain 2: AIQMTQSPSSLSASVGDRVTITCQASYWLSNYLAWYQQKPGKAPKLLIFDGDIPWEIPSRFSGSGSHEEYTLTISSLQPEDFATYYCQQYRDTPYTFGQGTKLEIKRTVAAPSVFIFPPSDEQLKSGTASVVCLLNNFYPREAKVQWKVDNALQSGNSQESVTEQDSKDSTYSLSSTLTLSKADYEKHKVYACEVTHQGLSSPVTKSFNRGEC | no binding | – | –
P1AH1205 (antibody, V domains shown) VH: KVQLVESGGGLVQPGGSLRLSCAASGFKWEHYAMSWVRQAPGKGLEWVGSISPRGDHKYYNTKFIDRFTISRDNDKNTLYLQMNSLRAEDTAVYYCARDWDYFDRWGQGTLVTVSS VL: AIQMTQSPSSLSASVGDRVTITCQSQFWLSNYLAWYQQKPGKAPKLLIFDGDLPYERPSRFSGSGSHDEYTLTISSLQPEDFATYYCQQYREEPYTFGQGTKLEIK | – | 0.095 nM | 0.016 nM
P1AH1199 (antibody, V domains shown) VH: QVQLVESGGGLVQPGGSLRLSCAASGFKYDVYAMSWVRQAPGKGLEWVGEISPRGDSKYYNTKFIDRFTISRDNEKNTLYLQMNSLRAEDTAVYYCARDWEYFDNWGQGTLVTVSS VL: AIQMTQSPSSLSASVGDRVTITCQASYWLSNYLAWYQQKPGKAPKLLIFDGDIPWEIPSRFSGSGSHEEYTLTISSLQPEDFATYYCQQYRDTPYTFGQGTKLEIK | – | 0.2 nM | 0.03 nM
P1AG9426 (antibody, V domains shown) VH: QVQLVESGGGLVQPGGSLRLSCAASGFKYDVYAMSWVRQAPGKGLEWVGEISPRGDSKYYNTKFIDRFTISRDNEKNTLYLQMNSLRAEDTAVYYCARDWEYFDNWGQGTLVTVSS VL: AIQMTQSPSSLSASVGDRVTITCQASYWLSNYLAWYQQKPGKAPKLLIFDGDIPYEIPSRFSGSGSHEEYTLTISSLQPEDFATYYCQQYRETPYTFGQGTKLEIK | – | 0.014 nM | < 0.001 nM
P1AG9376 (antibody, V domains shown) VH: KVQLVESGGGLVQPGGSLRLSCAASGFKWEHYAMSWVRQAPGKGLEWVGSISPRGDHKYYNTKFIDRFTISRDNDKNTLYLQMNSLRAEDTAVYYCARDWDYFDRWGQGTLVTVSS VL: AIQMTQSPSSLSASVGDRVTITCQSQFWLSNYLAWYQQKPGKAPKLLIFDGDLPYERPSRFSGSGSHDEYTLTISSLQPEDFATYYCQQYREEPYTFGQGTKLEIK | – | < 0.001 nM | < 0.001 nM
P1AG9391 (antibody, V domains shown) VH: QVQLVESGGGLVQPGGSLRLSCAASGFKYDVYAMSWVRQAPGKGLEWVGEISPRGDSKYYNTKFIDRFTISRDNEKNTLYLQMNSLRAEDTAVYYCARDWEYFDNWGQGTLVTVSS VL: AIQMTQSPSSLSASVGDRVTITCQASYWLSNYLAWYQQKPGKAPKLLIFDGDIPWEIPSRFSGSGSHEEYTLTISSLQPEDFATYYCQQYRDTPYTFGQGTKLEIK | – | 0.0016 nM | < 0.001 nM
P1AG9372 (antibody, V domains shown) VH: EVQLVESGGGLVQPGGSLRLSCAASGFRFDIYAMSWVRQAPGKGLEWVGEISPDGRTKYYNTKFIDRFTISRDNEKNTLYLQMNSLRAEDTAVYYCARDWEYFDNWGQGTLVTVSS VL: AIQMTQSPSSLSASVGDRVTITCQSQFWLSNYLAWYQQKPGKAPKLLIFDGDLPYERPSRFSGSGSHDEYTLTISSLQPEDFATYYCQQYREEPYTFGQGTKLEIK | – | 0.0116 nM | < 0.001 nM
P1AG9420 (antibody, V domains shown) VH: RVQLVESGGGLVQPGGSLRLSCAASGFRYDHYAMSWVRQAPGKGLEWVGSISPRGNHKYYNTKFIDRFTISRDDEKNTLYLQMNSLRAEDTAVYYCARDWDYFDHWGQGTLVTVSS VL: AIQMTQSPSSLSASVGDRVTITCQASYWLSNYLAWYQQKPGKAPKLLIFDGDIPYEIPSRFSGSGSHEEYTLTISSLQPEDFATYYCQQYRETPYTFGQGTKLEIK | – | 0.011 nM | < 0.001 nM
